{"source": "paper PMC3292560", "about": "“Isolation and Characterization of EstC, a New Cold-Active Esterase from Streptomyces coelicolor A3(2)” (PLoS ONE, 2012)", "proteins": {"B1": {"name": "EstC (Streptomyces coelicolor A3(2)) (protein)", "chain": "MSRNAAFSPPPSARAYRLRTARGEFAVVDSPAAAGVAPRGVVMMLPGFTGSKEDFTLLHRPLGARGYRTVAVDGRGQYESDGPEHDESAYARPELARDVLAQAAALGTRVHLVGHSLGGQIARAAVLLDPAPFLSLTLMSSGPARISESQRQRVKLLRDALDTMTMAEVWEVMQAMGPPEEAGAPAPAHGPEDRVRLRDRWLGTRPAQLLATGGQLCTEPDRVAELAAVPLPFHVLSGTYDDTWPVPLLDEMALRLDARRTVVAGAEHSPNTDQPLPTARALADFWDDHPVPPRPYVR", "notes": "full-length ORF, no signal peptide, N-terminal His-tag (pET16b) kept, E. coli BL21(DE3), IMAC; 34665 Da with tag without initiator Met"}}, "format_in_all_cases": "biochemical, Streptomyces coelicolor", "key": {"[1]": {"substrate": "CC(=O)Oc1ccc([N+](=O)[O-])cc1", "assay": "purified protein", "details": "50 mM Tris-HCl pH 8.5, 0.1% Triton X-100, 35°C, fitted below substrate-inhibiting concentrations"}, "[2]": {"substrate": "CCCC(=O)Oc1ccc([N+](=O)[O-])cc1", "assay": "purified protein", "details": "50 mM Tris-HCl pH 8.5, 0.1% Triton X-100, 35°C, fitted below substrate-inhibiting concentrations"}, "[3]": {"substrate": "CCCCC(=O)Oc1ccc([N+](=O)[O-])cc1", "assay": "purified protein", "details": "50 mM Tris-HCl pH 8.5, 0.1% Triton X-100, 35°C, fitted below substrate-inhibiting concentrations"}, "[4]": {"substrate": "CCCCCC(=O)Oc1ccc([N+](=O)[O-])cc1", "assay": "purified protein", "details": "50 mM Tris-HCl pH 8.5, 0.1% Triton X-100, 35°C, fitted below substrate-inhibiting concentrations"}, "[5]": {"substrate": "CCCCCCCC(=O)Oc1ccc([N+](=O)[O-])cc1", "assay": "purified protein", "details": "50 mM Tris-HCl pH 8.5, 0.1% Triton X-100, 35°C, fitted below substrate-inhibiting concentrations"}, "[6]": {"substrate": "CC(=O)OCC(COC(C)=O)OC(C)=O", "assay": "pH-stat titration of released fatty acid", "details": "5 mM Tris-HCl pH 8.5, 1% arabic gum emulsion, 35°C", "source_text": "(§1) pH-stat titration of released fatty acid on EstC"}, "[7]": {"substrate": "CCCC(=O)OCC(COC(=O)CCC)OC(=O)CCC", "assay": "pH-stat titration of released fatty acid", "details": "5 mM Tris-HCl pH 8.5, 1% arabic gum emulsion, 35°C", "source_text": "as §1"}}, "data": [{"protein": "B1", "values": [{"measurement": "Km", "setting": "[1]", "result": "2900 ± 800", "unit": "µM"}, {"measurement": "kcat", "setting": "[1]", "result": "451 ± 10", "unit": "s⁻¹"}, {"measurement": "kcat/Km", "setting": "[1]", "result": "156000 ± 41000", "unit": "M⁻¹ s⁻¹"}, {"measurement": "Km", "setting": "[2]", "result": "840 ± 50", "unit": "µM"}, {"measurement": "kcat", "setting": "[2]", "result": "124 ± 2", "unit": "s⁻¹"}, {"measurement": "kcat/Km", "setting": "[2]", "result": "148000 ± 10000", "unit": "M⁻¹ s⁻¹"}, {"measurement": "Km", "setting": "[3]", "result": "270 ± 30", "unit": "µM"}, {"measurement": "kcat", "setting": "[3]", "result": "199 ± 6", "unit": "s⁻¹"}, {"measurement": "kcat/Km", "setting": "[3]", "result": "737000 ± 77000", "unit": "M⁻¹ s⁻¹"}, {"measurement": "Km", "setting": "[4]", "result": "71 ± 4", "unit": "µM"}, {"measurement": "kcat", "setting": "[4]", "result": "41 ± 1", "unit": "s⁻¹"}, {"measurement": "kcat/Km", "setting": "[4]", "result": "578000 ± 36000", "unit": "M⁻¹ s⁻¹"}, {"measurement": "Km", "setting": "[5]", "result": "110 ± 18", "unit": "µM"}, {"measurement": "kcat", "setting": "[5]", "result": "58 ± 3", "unit": "s⁻¹"}, {"measurement": "kcat/Km", "setting": "[5]", "result": "527000 ± 90000", "unit": "M⁻¹ s⁻¹"}, {"measurement": "Km", "setting": "[6]", "result": "90000 ± 1000", "unit": "µM"}, {"measurement": "kcat", "setting": "[6]", "result": "151 ± 2", "unit": "s⁻¹"}, {"measurement": "kcat/Km", "setting": "[6]", "result": "1700 ± 30", "unit": "M⁻¹ s⁻¹"}, {"measurement": "Km", "setting": "[7]", "result": "620 ± 300", "unit": "µM"}, {"measurement": "kcat", "setting": "[7]", "result": "14 ± 1", "unit": "s⁻¹"}, {"measurement": "kcat/Km", "setting": "[7]", "result": "23000 ± 12000", "unit": "M⁻¹ s⁻¹"}]}]}
